# Laboratory results as given in patent US20180148477A1 (published 2018).
# Bridge positions count the residues as written; N and C are the ends. Square brackets hold non-standard residues; d marks the D form. Ends that are not written are not given here. 1Nal = N[C@@H](Cc1cccc2ccccc12)C(=O)O; 2Nal = N[C@@H](Cc1ccc2ccccc2c1)C(=O)O; d1Nal = N[C@H](Cc1cccc2ccccc12)C(=O)O; d2Nal = N[C@H](Cc1ccc2ccccc2c1)C(=O)O; NMeR = CN[C@@H](CCCNC(=N)N)C(=O)O; hPhe = N[C@@H](CCc1ccccc1)C(=O)O; Aic = NC1(C(=O)O)Cc2ccccc2C1; NMeK = CN[C@@H](CCCCN)C(=O)O; Pen = CC(C)(S)[C@H](N)C(=O)O; dNMeK = CN[C@H](CCCCN)C(=O)O; Dab = NCC[C@H](N)C(=O)O; Dap = NC[C@H](N)C(=O)O
# B1: SEQ ID NO: 12 (peptide)
# peptide: Ac-[Pen][NMeR]SDTL[Pen][1Nal][dE][dNMeK]-NH2
# modifications: disulfide 1-7 (inferred)
# B2: SEQ ID NO: 56 (peptide)
# peptide: Ac-[Pen][NMeR]SDTL[Pen]W[dE][Dab]-NH2
# modifications: disulfide 1-7
# SMILES: CC(=O)N[C@@H]1C(=O)N(C)[C@@H](CCCNC(=N)N)C(=O)N[C@@H](CO)C(=O)N[C@@H](CC(=O)O)C(=O)N[C@@H]([C@@H](C)O)C(=O)N[C@@H](CC(C)C)C(=O)N[C@H](C(=O)N[C@@H](Cc2c[nH]c3ccccc23)C(=O)N[C@H](CCC(=O)O)C(=O)N[C@@H](CCN)C(N)=O)C(C)(C)SSC1(C)C
# B3: SEQ ID NO: 18 (peptide)
# peptide: Ac-[Pen][NMeR]SDTL[Pen][1Nal]E[dNMeK]-NH2
# modifications: disulfide 1-7
# SMILES: CC(=O)N[C@@H]1C(=O)N(C)[C@@H](CCCNC(=N)N)C(=O)N[C@@H](CO)C(=O)N[C@@H](CC(=O)O)C(=O)N[C@@H]([C@@H](C)O)C(=O)N[C@@H](CC(C)C)C(=O)N[C@H](C(=O)N[C@@H](Cc2cccc3ccccc23)C(=O)N[C@@H](CCC(=O)O)C(=O)N(C)[C@H](CCCCN)C(N)=O)C(C)(C)SSC1(C)C
# B4: SEQ ID NO: 88 (peptide)
# peptide: Ac-[Pen][NMeR]SDTL[Pen][2Nal][dK]-NH2
# modifications: disulfide 1-7
# SMILES: CC(=O)N[C@@H]1C(=O)N(C)[C@@H](CCCNC(=N)N)C(=O)N[C@@H](CO)C(=O)N[C@@H](CC(=O)O)C(=O)N[C@@H]([C@@H](C)O)C(=O)N[C@@H](CC(C)C)C(=O)N[C@H](C(=O)N[C@@H](Cc2ccc3ccccc3c2)C(=O)N[C@H](CCCCN)C(N)=O)C(C)(C)SSC1(C)C
# B5: SEQ ID NO: 60 (peptide)
# peptide: Ac-[Pen][NMeR]SDTL[Pen]WE[Dap]
# modifications: disulfide 1-7; also: C-terminus written Dap-Ac, acetyl place unclear
# B6: SEQ ID NO: 138 (peptide)
# peptide: Ac-[Pen][NMeR]SDTL[Pen][2Nal]E[NMeK]-NH2
# modifications: disulfide 1-7 (inferred); also: homodimer via DIG
# B7: SEQ ID NO: 143 (peptide)
# peptide: [Pen][NMeR]SDTL[Pen][2Nal]E
# modifications: disulfide 1-7 (inferred); not fully specified (bridges); printed as Cyclo-[Pen-N-Me-R-S-D-T-L-Pen-2-Nal-E], Pen-Pen disulfide
# B8: SEQ ID NO: 55 (peptide)
# peptide: Ac-[Pen][NMeR]SDTL[Pen]W[dE][Dap]-NH2
# modifications: disulfide 1-7
# SMILES: CC(=O)N[C@@H]1C(=O)N(C)[C@@H](CCCNC(=N)N)C(=O)N[C@@H](CO)C(=O)N[C@@H](CC(=O)O)C(=O)N[C@@H]([C@@H](C)O)C(=O)N[C@@H](CC(C)C)C(=O)N[C@H](C(=O)N[C@@H](Cc2c[nH]c3ccccc23)C(=O)N[C@H](CCC(=O)O)C(=O)N[C@@H](CN)C(N)=O)C(C)(C)SSC1(C)C
# B9: SEQ ID NO: 61 (peptide)
# peptide: Ac-[Pen][NMeR]SDTL[Pen]WE[Dab]-NH2
# modifications: disulfide 1-7
# SMILES: CC(=O)N[C@@H]1C(=O)N(C)[C@@H](CCCNC(=N)N)C(=O)N[C@@H](CO)C(=O)N[C@@H](CC(=O)O)C(=O)N[C@@H]([C@@H](C)O)C(=O)N[C@@H](CC(C)C)C(=O)N[C@H](C(=O)N[C@@H](Cc2c[nH]c3ccccc23)C(=O)N[C@@H](CCC(=O)O)C(=O)N[C@@H](CCN)C(N)=O)C(C)(C)SSC1(C)C
# B10: SEQ ID NO: 29 (peptide)
# peptide: Ac-[Pen][NMeR]SDTL[Pen][2Nal][dE][dK]-NH2
# modifications: disulfide 1-7; also: dimer via DIG
# B11: SEQ ID NO: 8 (peptide)
# peptide: Ac-[Pen][NMeR]SDTL[Pen][1Nal][dE][dK]-NH2
# modifications: disulfide 1-7
# SMILES: CC(=O)N[C@@H]1C(=O)N(C)[C@@H](CCCNC(=N)N)C(=O)N[C@@H](CO)C(=O)N[C@@H](CC(=O)O)C(=O)N[C@@H]([C@@H](C)O)C(=O)N[C@@H](CC(C)C)C(=O)N[C@H](C(=O)N[C@@H](Cc2cccc3ccccc23)C(=O)N[C@H](CCC(=O)O)C(=O)N[C@H](CCCCN)C(N)=O)C(C)(C)SSC1(C)C
# B12: SEQ ID NO: 10 (peptide)
# peptide: Ac-[Pen][NMeR]SDTL[Pen][d1Nal]E[dK]-NH2
# modifications: disulfide 1-7
# SMILES: CC(=O)N[C@@H]1C(=O)N(C)[C@@H](CCCNC(=N)N)C(=O)N[C@@H](CO)C(=O)N[C@@H](CC(=O)O)C(=O)N[C@@H]([C@@H](C)O)C(=O)N[C@@H](CC(C)C)C(=O)N[C@H](C(=O)N[C@H](Cc2cccc3ccccc23)C(=O)N[C@@H](CCC(=O)O)C(=O)N[C@H](CCCCN)C(N)=O)C(C)(C)SSC1(C)C
# B13: SEQ ID NO: 50 (peptide)
# peptide: Ac-[Pen][NMeR]SDTL[Pen][2Nal][hPhe][dK]-NH2
# modifications: disulfide 1-7
# SMILES: CC(=O)N[C@@H]1C(=O)N(C)[C@@H](CCCNC(=N)N)C(=O)N[C@@H](CO)C(=O)N[C@@H](CC(=O)O)C(=O)N[C@@H]([C@@H](C)O)C(=O)N[C@@H](CC(C)C)C(=O)N[C@H](C(=O)N[C@@H](Cc2ccc3ccccc3c2)C(=O)N[C@@H](CCc2ccccc2)C(=O)N[C@H](CCCCN)C(N)=O)C(C)(C)SSC1(C)C
# B14: SEQ ID NO: 39 (peptide)
# peptide: Ac-[Pen][NMeR]SDTL[Pen][2Nal][dE][dNMeK]-NH2
# modifications: disulfide 1-7; also: dimer via DIG
# B15: SEQ ID NO: 23 (peptide)
# peptide: Ac-[Pen][NMeR]SDTL[Pen][2Nal]Y[dK]-NH2
# modifications: disulfide 1-7; also: dimer via DIG
# B16: SEQ ID NO: 35 (peptide)
# peptide: Ac-[Pen][NMeR]SDTL[Pen][d2Nal]E[dK]-NH2
# modifications: disulfide 1-7; also: dimer via DIG
# B17: SEQ ID NO: 62 (peptide)
# peptide: Ac-[Pen][NMeR]SDTL[Pen]WE[Dab]
# modifications: disulfide 1-7; also: C-terminus written Dab-Ac, acetyl place unclear
# B18: SEQ ID NO: 9 (peptide)
# peptide: Ac-[Pen][NMeR]SDTL[Pen][2Nal][dE][dK]-NH2
# modifications: disulfide 1-7
# SMILES: CC(=O)N[C@@H]1C(=O)N(C)[C@@H](CCCNC(=N)N)C(=O)N[C@@H](CO)C(=O)N[C@@H](CC(=O)O)C(=O)N[C@@H]([C@@H](C)O)C(=O)N[C@@H](CC(C)C)C(=O)N[C@H](C(=O)N[C@@H](Cc2ccc3ccccc3c2)C(=O)N[C@H](CCC(=O)O)C(=O)N[C@H](CCCCN)C(N)=O)C(C)(C)SSC1(C)C
# B19: SEQ ID NO: 59 (peptide)
# peptide: Ac-[Pen][NMeR]SDTL[Pen]WE[Dap]-NH2
# modifications: disulfide 1-7
# SMILES: CC(=O)N[C@@H]1C(=O)N(C)[C@@H](CCCNC(=N)N)C(=O)N[C@@H](CO)C(=O)N[C@@H](CC(=O)O)C(=O)N[C@@H]([C@@H](C)O)C(=O)N[C@@H](CC(C)C)C(=O)N[C@H](C(=O)N[C@@H](Cc2c[nH]c3ccccc23)C(=O)N[C@@H](CCC(=O)O)C(=O)N[C@@H](CN)C(N)=O)C(C)(C)SSC1(C)C
# B20: SEQ ID NO: 63 (peptide)
# peptide: Ac-[Pen][NMeR]SDTL[Pen]W[dE][Dap]
# modifications: disulfide 1-7; also: C-terminus written Dap-Ac, acetyl place unclear
# B21: SEQ ID NO: 64 (peptide)
# peptide: Ac-[Pen][NMeR]SDTL[Pen]W[dE][Dab]
# modifications: disulfide 1-7; also: C-terminus written Dab-Ac, acetyl place unclear
# B22: SEQ ID NO: 13 (peptide)
# peptide: Ac-[Pen][NMeR]SDTL[Pen][2Nal][dE][dNMeK]-NH2
# modifications: disulfide 1-7 (inferred)
# B23: SEQ ID NO: 11 (peptide)
# peptide: Ac-[Pen][NMeR]SDTL[Pen][d2Nal]E[dK]-NH2
# modifications: disulfide 1-7
# SMILES: CC(=O)N[C@@H]1C(=O)N(C)[C@@H](CCCNC(=N)N)C(=O)N[C@@H](CO)C(=O)N[C@@H](CC(=O)O)C(=O)N[C@@H]([C@@H](C)O)C(=O)N[C@@H](CC(C)C)C(=O)N[C@H](C(=O)N[C@H](Cc2ccc3ccccc3c2)C(=O)N[C@@H](CCC(=O)O)C(=O)N[C@H](CCCCN)C(N)=O)C(C)(C)SSC1(C)C
# B24: SEQ ID NO: 51 (peptide)
# peptide: Ac-[Pen][NMeR]SDTL[Pen]W[Aic][dK]-NH2
# modifications: disulfide 1-7
# SMILES: CC(=O)N[C@@H]1C(=O)N(C)[C@@H](CCCNC(=N)N)C(=O)N[C@@H](CO)C(=O)N[C@@H](CC(=O)O)C(=O)N[C@@H]([C@@H](C)O)C(=O)N[C@@H](CC(C)C)C(=O)N[C@H](C(=O)N[C@@H](Cc2c[nH]c3ccccc23)C(=O)NC2(C(=O)N[C@H](CCCCN)C(N)=O)Cc3ccccc3C2)C(C)(C)SSC1(C)C
# B25: SEQ ID NO: 15 (peptide)
# peptide: Ac-[Pen][NMeR]SDTL[Pen][2Nal]E[dNMeK]-NH2
# modifications: disulfide 1-7 (inferred)
# Legend:
# [1] = molecular target: rh integrin α4β7 (R&D Systems #5397-A30) (human) (UniProt P13612); assay: competition ELISA vs MAdCAM-1
# [2] = molecular target: human α4β7 integrin on cells (human) (UniProt P13612); assay: RPMI8866 adhesion to MAdCAM-1
# [3] = molecular target: α4β1 (R&D Systems #5668-A4) (UniProt P13612); assay: competition ELISA vs VCAM-1
binder,measurement,setting,value
B1,IC50,[1],> 25 nM
B2,IC50,[2],> 500 nM
B3,IC50,[3],> 500 nM
same,IC50,[1],> 10 nM
B4,IC50,[1],> 10 nM
B5,IC50,[2],> 1000 nM
B6,IC50,[2],> 10 nM
same,IC50,[1],> 10 nM
B7,IC50,[2],> 10000 nM
same,IC50,[1],250 nM
B8,IC50,[2],> 100 nM
B9,IC50,[2],> 1000 nM
B10,IC50,[2],> 10 nM
same,IC50,[1],< 10 nM
B11,IC50,[1],> 25 nM
B12,IC50,[1],> 10 nM
B13,IC50,[1],> 10 nM
B14,IC50,[2],> 10 nM
B15,IC50,[3],> 100 nM
same,IC50,[2],< 10 nM
B16,IC50,[2],> 100 nM
B17,IC50,[2],> 1000 nM
B18,IC50,[2],> 100 nM
same,IC50,[1],> 10 nM
B19,IC50,[2],> 10000 nM
B20,IC50,[2],> 1000 nM
B21,IC50,[2],> 1000 nM
B22,IC50,[2],> 100 nM
same,IC50,[1],> 10 nM
B23,IC50,[1],> 25 nM
B24,IC50,[1],> 25 nM
B25,IC50,[1],< 10 nM
